The DeepSol protein solubility set

test: soluble on expression in E. coli; label from the status in PepcDB or PDB records

Soluble on expression in E. coli, soluble:
VFHPVECSYCHSESMMGFRYRCQQCHNYQLCQDCFWRGHAGGSHSNQHQMKEYTSW
MNVVKISPRGYCYGVVDAMVLARQAAQNLDLPRPIYILGMIVHNKHVTDAFEEEGIISLDGPNRLDILKQVDKGTVIFTAHGVSPQVRKLAKEKGLTVVDATCPDVTRTHDLIREKSQEGYKFIYVGKKGHPEPEGAIGVAPEFVHLVENVEDVESLDISADKIIITNQTTMSQWDVSEIMKKAMEKYPQAEVHNEICLATQVRQEAVAEQARECDLVIVVGDPKSNNSNRLAQVSEQIAGTKAYRIGDVTELQQEWFDGVETVGVTAGASTPTPITKEVIAFIEKYDPSKPETWTPERKVTLQKILPKVKIKKLEHHHHHH
MLQSGEWAYTEKLKEHFESPKNVLQGNDTSAFDGVGMEGNLQCGDQMMVAIKVDKESEKITDCQWKTYGCASAIASTSILSEMVKGMTLDQAFNISPKEVAKELGGLPENKIHCSVLGDKALRAAINDYFIRNGMSDRVQKVQARTVCQCMNVTDHDIEEAVLEGARTFYELQEHTKISTVCGQCREDAENELQKYIHLHFGS
MKVEIGKIVNTHGIKGEIKVKSNSDFTETRFQPGELVIIERKNKEPLEFTIASYRMHKGLHMLTFEGINNINDIEYLKGETIMQERDHEEIELGEHEFYYSDIIGCTVFDDDDTPIGRVTEIFETGANDVWVVKGDKEYLIPYIADVVKDIDVEGRRIQITPMEGLLDLEHHHHHH
MSLSTKNHFIFPTYVQMYPYSKDRPFLKQVREKLRYYGYKWLYQKQCSQLVDFLNTETQWQSLFTQDYYRTNTILTTFCDKRFSASERLTAITENLRLAEEKMGRSLCQQLLDQQHIVLTQLTEDLRLSLSINHIDPFEGYFSINIRNQNNERVYDSSFTFLSPNKLLIASIQGPSSDNAQELVKQATKALHGMRPMFMLVNGFKMLAEKWQCELVGIPHKAQGKYRLSARSKILFNYDEFWQENQGEYRHNYWQLPLHIERKQLEDIASKKRSMYRKRYEMLDQMALDIQQLEGHHHHHH
GPGSMSKYANPDYWEERYRSNDTTFDWYLTFDNLEPVLRPMLQPAEQIHVLVVGCGNSRLSPCMYEHLNVRKITNVDVSPTVISQMTRRYKGMDEMRWICCDLIHTAPDKLLTLLCPEDALFDFVIDKGLVDATLGGSNSFHNLYTLTKNLARVMKNGGRFLSVSYGAPETRIDHFRRRKLNFDVEHRTIEKSVFASGAAPTGSYHVYIMTKLGERQAVTAGAADDGALSGDTDDDDDFYDRFMTKANTTSADAARFD
MNGVEGNNELSLANTTTPSHASEDLDLKQDQGLQEETDTVREMEAAGEAGADGGASPDSEHCGPELCFRVAENSCAAAARGLEDAPSPSKGGDAPSAPVAADDSSKNGCQLEGPHSPAKPKALEACGAVGLGSQQMPGPKKTKEMTTTKCAISVATGKEGEAGAAMQEKKGLQKEKKVAGGGKEETRPRAPKINCMDSLEAIDQELSNVNAQADRAFLQLERKFGRMRRLHMQRRSFIIQNIPGFWVTAFRNHPQLSPMISGQDEDMMRYMINLEVEELKQPRVGCKFKFIFQSNPYFRNEGLVKEYERRSSGRVVSLSTPIRWHRGQEPQAHIHRNREGNTIPSFFNWFSDHSLLEFDRIAEIIKGELWSNPLQYYLMGDGPRRGVRVPPRQPVESPRSFRFQSG
MAHHHHHHMKNGKPMGGRETQKQKQKQKQVTLLTWINRANQPRQLTRKTKKAHEKQEERRIWLGAAKRLPQKMPQSMRCNYDIRTHINTHIHKHSHSHSHQLQTYTRTHHLSQKEMKRNEPQDIIRFHSNTQEPAGSTSSHVVTRLVITLLLLCTTQICPTSTEAVERGKQGALLFR
MANFIEKITYLGTPAIKAGNEHLEMIVVPEWGSNVISLVDKTTNVQLLREPETAESFHDTPTLYGIPILFPPNRISDGTFSFRGRTYHFDINEKDKHNHLHGFLYHEKWNVVTTKQTDEGVIVETEIDLSELPHVQKQFPHHAVVRMTYTIKENTLFKHATVMNKGKEAFPWGIGYHTTFIFPAESSLFSLTADQQWELDERLLPTGKLMDVPYKEALHEGMDLRHKQLDDVFLSSYQKRGGENQAVIYHQHAHISIIYKADEQFKHWVVYNADGKQGYLCPEPYTWVTNAVNLDLPSSLTGLQVLEPGEETTAKSSITIELNHQLEHHHHHH
MSLDHRKRESINDKNKMKVYTTVYAFQSLTQQIGGKYVDVQSIYPDGADLHSYEPTQKDMIDIAKSDLFVYSSHQLDPVAAKITNSMTNNSMKLALAEGLKQSDFIDSKGHDEDHEHHSHHEESNQDPHVWLDPVLNQKFAFMIKEKLIEKDPKHQAYYNKNYKMVNKDIVHIDQQLQSITKHSKRDKVVISHDSLGYLAHRYGFKQQGVKGMNDEEPSQKEILNIVKDIQHSHAPYVLYEQNITSKITDVIKKETDTKPLSFHNLAVLTKEEQNDDSISYQSLMKKNIYVLNRALNNEGHHHHHH
MVTFLGNPVSFTGKQLQVGDKALDFSLTTTDLSKKSLADFDGKKKVLSVVPSIDTGICSTQTRRFNEELAGLDNTVVLTVSMDLPFAQKRWCGAEGLDNAIMLSDYFDHSFGRDYALLINEWHLLARAVFVLDTDNTIRYVEYVDNINSEPNFEAAIAAAKAL
MGYRRFLQLVAHEFFHLWNVKRIRPKALEQFDYEAENYTPSLWFSEGATSYYDLLLPLRAGLYGVDSFLEALGKDLSRYLTTPGRKVQPLAESSFDAWVKLYRRDAYSDNQQMSYYLKGQLVCWLLDLEIRNHQPDLEHHHHHH
MAHHHHHHMGGVRIARCNPKLLDFVTWAVMKGCRLFQRVHVTPLGLVATERIPEFDFVAVVPVEATQSLLSIADDPSFALKVSAERHGEPVPFWEDLTRGSFAFLGFLTKALLTGHPRGVQTYLDVLPFDPAMPIGKMADAAQTTKGYKEWAAPLVAQCKVEESDFNAAFRHAYCLFRRHAIPLWSTSDASGSGHPYFQQSPYARRGQGELMGMVPVMDLALHSPQPNAMIGYPDEEMLQWLSLHKKAAVQQEKGYFVMQAFRDIEEGEVISVNKNAYFNFDDDAFEAWFGYPNVSQVPAEGSGELSSGCKPNGGEGAAVNCAL

Soluble on expression in E. coli, not soluble:
MGHHHHHHSHMAIVEHLYQQGMLSVAEELCQESTLNVDLDFKQPFLELNRILEALHEQDLGPALEWAVSHRQRLLELNSSLEFKLHRLHFIRLLAGGPAKQLEALSYARHFQPFARLHQREIQVMMGSLVYLRLGLEKSPYCHLLDSSHWAEICETFTRDACSLLGLSVESPLSVSFASGCVALPVLMNIKAVIEQRQCTGVWNHKDELPIEIELGMKCWYHSVFACPILRQQTSDSNPPIKLICGHVISRDALNKLINGGKLKCPYCPMEQNPADGKRIIF
KDGDFLDMDWHGPNDADAPLVLVLHGLTGSSNSPYVAGLQKAMAAKGWASVALNWRGCSGEPNLLSRSYHSGASEDLAEVIAHLRLLRPLAALYAVGYSLGGNVLLKYLGESGKHSELLGAVAVSVPFRLDECANRIGQGFSKVYQRHFMREMLTYIRDKQQRFQHEGLTEGLAELSALGSLENMRTFWDFDGRVTAPLHGFVDATDYYRRASSRYYLGQIETPTLIIQSRDDPFVFPHSLPEPGELSACTEFELHAKGGHVGFVDGSLRNPTYYLERRIPSWL
MSQSTSSEGSGPAAKIARKNSPENDPETAEMFIVDEITDMRYSTTCRQLQFLVKWAIPGSEMTWQPLDDFPFGLNHFSILDYRKDHEEKYEACLQKQRRSKVMKDDDRSWNVSRNSNRSRNRSKSSSKPAQRTEPMTQREKFDAILQISEISLEKQYKLTNKKVPRRSQFTDPDAPKKKSKGARHYRDQNLKTLFKSSLIRKYRKPQESDDDLEPDVAQDSPENTPAPPTKSPESSGFSENLENLGANTPSPSPDFEEEHLEKKPETGNLTENRPKRVYSHETAESMENYAKLLLYTAFDTKSWETLGGHIKNGFRLSFVCSNGLTIIENVVELNKNLNKFSDSRESRMVADLFELLLKKGVEFDEKTLPPTMCAAVRSTRYDIRRDFRCLHNQYIDKRPRMCEWFSATGGGGSCGTTEICTFWNNDAGYLPNTHQRSKFHVDLSEFTGNNLGLLAFSMAWHEDFIDNNSGGPEIVKNNRFNAHIDVPCFTLWMNGKMCEKLENSHGLSIFRPLGTVLDVNELKIKITEHSSRFVAILPVFNLNSDWKNCFFPLENQ
MSSMSESDSYQSSQLTSEPDLVALDAKIMAVMDGTEELEREIGKMMALQQAISDYKKSHQHRTQRTKEKLTDMSKDLTITGKNIVKSCEERLKQISDVTEPYINSGISSVEDHTSSVVERCIQMLGAISGLGGAMKKTEGLSSKVLEHHRKLAIMEHKQADAISRYEKAVGVQKLVREHPAGDPLHELANLLGIFLALQQSPNTSEYYKKVFDGFGGRVTALFAEIDRPKTAKSLATRSGMSTLSSMSNGEINLESIKDNTEIPVDTCQ
MKLERILPFSKTLIKQHITPESIVVDATCGNGNDTLFLAEQVPEGHVYGFDIQDLALENTRDKVKDFNHVSLIKDGHENIEHHINDAHKGHIDAAIFNLGYLPKGDKSIVTKPDTTIQAINSLLSLMSIEGIIVLVIYHGHSEGQIEKHALLDYLSTLDQKHAQVLQYQFLNQRNHAPFICAIEKIS
MGSDKIHHHHHHMARHALMRTELLPTFGMPDKKVDGFIARIRERHPKMIFGYPSAMSHIVPCAEQRGVRFDDLGIKVVFCTSERLYNHQRETIVRLFGCPVANGYGGRDAGFIAHECPNGNMHVITEDIVVEIIGEAGRVLPHRQSGKIVVTHLATRDYPFIRYRTGDIASLSEETCSCGRGLPLLTDIQGRNTDFVVAAEGTVLHGLALIYVVHDLNEVRTFKIVRKNREHTRILLAPEAGGDMTGIDTIIIDGFRCRLGAKVTVKFVDAVLAEKSGKFCYVASHVVLH
MENKYTHGVLFYHEHSGLKNINQGIGEVTTALSSICKHLSIQLSENEGDIIKYCQEIKTKNYAKDVDILFILGGDGTVNELINGVMTHDLQLPIGILPGGTFNDFTKTLNIAPNHKQASEQMISAQVGKYDVIKINNQYALNFVGLGLIVQNAENVQDGSKDIFGKLSYIGSTVKTLLNPTQFNYQLSIDDKTYSGETTMILTANGPFIGGSRIPLTDLSPQDGELNTFIFNEQSFSILNDIFKKRDSMNWNEITQGIEHIPGKKISLTTDPAMKVDIDGEISLETPIDIEVIPNAIQLLTVNDLLEHHHHHH
MGSDKIHHHHHHMELRDLQIFKCVAHHKSITGAAKELNYVQSNVTARIKQLENELKTPLFNRHKKGVSLSPEGRKMIEYVNKILKDVEELEQVFLDTEIPSGILKIGTVETVRILPTIIASYYKKYPNVDLSLQAGLTEELIKKVMNHELDGAFISGPLKHSILEQYDVYTEKLTLVTSNKTFNIEDFSTTPILVFNQGCGYRSRLEQWLKDEGVLPNRMMEFNILETILNSVALGLGITVVPESAVMHLAVQGKVYCHPLPEKDSCISTIFIRHKDAYLTNSMRSLLKTIVEHKNMSMA
MTKMSITVNQTVLHQLVKNVDGDSIKMESVLRDELLSITPEVEQMMLQLHQSYQNKAKAFGVFQEKSIFAQHLNRLLEQEIEFLGFSQYSTKLLADELGKYNFAESGTLILCQYNFLATDYLFIALLDSRHSMLVDEHLDIRRTEYLDITQFDIAARINLTDLQVNANSNRYLTFIKGRVGRKISDFFMDFLGAEEGLNPQVQNQCLLQAVSDYCDQGELNKEQTQAVKKQVFEYCKGQLSNGNNIELRELSDSLPTLNEQPFVVFTEKQNYGLEESIPPIRSTLKSLTKFSGSGKGVTLSFDAELLNTRIQWDPMTDTLTIKGLPPNLKDQLQKALKSEN
